Holding throughout (experiment): cell-based or functional assay
The target of assay [1] is T1, AVR3a homolog from Phytophthora palmivora designated as L6B (Phytophthora palmivora).
T1 sequence: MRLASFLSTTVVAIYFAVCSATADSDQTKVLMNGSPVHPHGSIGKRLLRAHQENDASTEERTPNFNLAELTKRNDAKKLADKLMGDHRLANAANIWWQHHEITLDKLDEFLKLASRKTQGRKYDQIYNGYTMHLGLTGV

The target of assay [2] is AVR3a^KI effector protein of Phytophthora infestans (Phytophthora infestans) (UniProt Q572D3).
Assay [3] has as its target T2, AVR3a homolog from Phytophthora palmivora designated as L3B (Phytophthora palmivora).
T2 sequence: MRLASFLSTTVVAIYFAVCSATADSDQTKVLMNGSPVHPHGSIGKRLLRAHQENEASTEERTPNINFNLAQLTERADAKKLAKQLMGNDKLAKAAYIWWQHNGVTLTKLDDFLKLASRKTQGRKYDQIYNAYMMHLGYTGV

Assay [4] has as its target T3, AVR3a homolog from Phytophthora palmivora designated as L7B (Phytophthora palmivora).
T3 sequence: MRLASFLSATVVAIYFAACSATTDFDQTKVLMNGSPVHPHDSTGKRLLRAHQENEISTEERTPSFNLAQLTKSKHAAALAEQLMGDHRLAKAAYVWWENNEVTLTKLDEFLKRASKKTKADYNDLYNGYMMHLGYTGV

B1: modified R3a protein corresponding to clone GS4 (protein)
chain: MEIGLAVGGAFLSSALNVLFDRLAPHGDLLNMFQKHKDHVKLLKKLEDILLGLQIVLSDAENKQASNRHVSQWFNKLQNAVDGAENLIEQVNYEALRLKVEGQHQNLAETSNQQVSDLNLCFSDDFFLNIKDKLEETIETLEVLEKQIGRLGLKEHFGSTKQETRTPSTSLVDDSDIFGRQNDIEDLIDRLLSEDASGKKRTVVPIVGMGGLGKTTLAKAVYNDERVQIHFGLKAWFCVSEAFDAFRITKGLLQEIGSFDLKADDNLNQLQVKLKERLKGKKFLIVLDDVWNDNYNKWDELRNVFVQGDIGSKIIVTTRKESVALMMGNEQISMDNLSTESSWSLFKTHAFENMGPMGHPELEEVGKQIAAKCKGLPLALKTLAGMLRSKSEVEEWKRILRSEIWELPHNDILPALMLSYNDLPAHLKRCFSFCAIFPKDYPFRKEQVIHLWIANGLVPQEDVIIEDSGNQYFLELRSRSLFERVPNPSQGNTENLFLMHDLVNDLAQIASSKLCIRLEESQGSHMLEQSQHLSYSMGYGGEFEKLTPLYKLEQLRTLLPTCIDLPDCCHHLSKRVLHNILPRLTSLRALSLSCYEIVELPNDLFIKLKLLRFLDISRTEIKRLPDSICALYNLETLLLSSCYDLEELPLQMEKLINLRHLDISNTRPLKMPLHLSKLKSLQVLVGAKFLIGGLRMEDLGEVHNLYGSLSVVELQNVVDRREAVKAKMREKNHVDRLYLEWSGSSSADNSQTERDILDELRPHKNIKVVKITGYRGTNFPNWLADPLFLKLVKLSLRNCKNCYSLPALGQLPFLKFLSIREMHGITEVTEEFYGSWSSKKPFNCLEKLEFKDMPEWKQWDLLGSGEFPILEKLLIENCPELSLETVPIQLSSLKSFDVIGSPLVINFPLSILPTTLKRIKISDCQKLKLEQPTGEISMFLEELTLIKCDCIDDISPELLPRARKLWVQDWHNLTRFLIPTATETLDIWNCENVEILSVACGGTQMTSLTIAYCKKLKWLPERMQELLPSLKELHLSNCPEIESFPEGGLPFNLQQLAIRYCKKLVNGRKEWHLQRRLCLTALIIYHDGSDEEIVGGENWELPSSIQRLTIVNLKTLSSQHLKNLTSLQYLFIRGNLPQIQPMLEQGQCSHLTSLQSLQISSLQSLPESALPSSLSHLEISHCPNLQSLPESALPSSLSQLTINNCPNLQSLSESTLPSSLSQLEISFCPNLQYLPLKGMPSSLSELSIYKCPLLKPQLEFDKGEYWPNIAQFPTIKIDRECM
For B1, the Cell death/HR intensity, pVnt1-R3aGS4, 1dpi in assay [1] was found to be 0; in assay [2], 2; in assay [3], 0; in assay [4] it was 2. Also, the Cell death/HR intensity, pVnt1-R3aGS4, 2dpi in assay [1] turned out to be 0; in assay [2] it was 4; in assay [3], 2; in assay [4], 2. Moreover, the Cell death/HR intensity, pVnt1-R3aGS4, 3dpi in assay [1] is 0; in assay [2], 4; in assay [3], 3; in assay [4], 2.

The values are drawn from US20130097734A1.
